Measured values from patent US11898183B2, “Programmed microorganisms to attenuate a disease” (priority 2020, dated 2024).

Test system: pathway specific substrates
Assay: Enzyme functionality of pathway enzyme homologs and fusion constructs in lysed E. coli cell extracts, product by HPLC
Type: biochemical, E. coli BL21
Conditions: protein expressed in E. coli, lysed cell extract, pathway specific substrate, HPLC
Description: As per one of the possible implementations of the present disclosure, two proteins—cinnamate-4-hydroxylate (C4H) and 4-coumaroyl CoA-ligase (4CL) were expressed as one fusion protein. Also, other two proteins which were expressed as one fusion protein were hydroxycinnamoyl-CoA quinate hydroxycinnamoyltransferase (HCT) and p-coumaroyl quinate 3′-hydroxylase (HCTC3H). The fusion gene and the corresponding fusion protein was prepared using the following method. […] The enzyme fusion constructs were made for the selected genes (Table 5). Pathway genes and the fusion constructs were individually cloned in E. coli expression vector pET28+ under T7 promoter and transformed in E. coli BL21 cells. Recombinant bacterial cells were induced with IPTG and enzyme functionality was tested with pathway specific substrates (Table 5) using lysed E. coli cell extracts. HPLC analysis was carried out to quantify the product formation and in turn shortlisting of efficient enzymes for functional pathway assembly towards Etoposide in E. coli.
The E. coli transformants were grown overnight at 37° C. in 1 ml of M9 minimal media containing ampicillin (100 mg/1), in 96-well format. The next day, 150 μl of each culture was inoculated into 3 ml M9 minimal media containing ampicillin (100 mg/1), IPTG 0.1 mM in 24-well format, and incubated at 30° C. and 200 rpm for ˜20 hours. The following day, cells were spun down and pellets were resuspended in 100 μl of lysis buffer containing 10 mM Tris-HCl pH 8, 5 mM MgCl2, 1 mM CaCl2) and complete mini protease inhibitor EDTA-free (3 tablets/100 ml) (Hoffmann-La Roche, Basel, Switzerland) and frozen at −80° C. for at least 15 minutes to promote cell lysis. Pellets were thawed at room temperature and 50 μl of DNase mix (1 μl of 1.4 mg/ml DNase in H2O (˜80000 u/ml), 1.2 μl of MgCl2 500 mM and 47.8 μl of 4×PBS buffer solution) was added to each well. Plates were shaken at 500 rpm for 5 min at room temperature to allow degradation of genomic DNA. Plates were spun down at 4000 rpm for 30 min at 4° C. and six μl of the lysates were used in in vitro using appropriate substrates for enzymes as per Table 6. In each case, the resulting compounds were measured by HPLC. Results were analysed in comparison with the lysates expressing the corresponding controls (the empty plasmid). […]

Molecule	enzyme activity
UGT Cicer arietinum: Glycosyltransferase (UGT) from Cicer arietinum (protein, listed as Cicer arietinum) MKKIEVVFIPSPGVGHLISTLEFANLLINRNNRLNITVLVINFPKTVEKQTNYSLTESENLHVINLPQTTTHVPSTSDVGNSISALVETQKSNVKQAVSNLTGTLAAFVVDMFCTTMIDVANELGVPSLVFFTSGVAFLGLMLHLHTIWEQQDTELLLQQDELDIPSFANPVATNTLPTLVLRKEWESSFIKYGNGLKKASGIIVNSFHELEPHAVRSFLEDPTLRDLPIYPVGPILNPKSNVDSDDVIKWLDDQPPSSVVFLCFGSMGTFDEEQVREIALAIERSGVRFLWSLRKPQPQGTMVPPSDYTLSQMLEVLPEGFLDRTANIGRVIGWAPQVQVLAHQATGGFVSHCGWNSTLESIYYGVPIATWPLFAEQQTNAFELVRELKIAVEIALDYRLEFDIGRNYLLDADKIERGIRGVLDKDGEVRKKVKEMSQKSRNVLLEGGSSYTYLGQLIDYITNQV	97%
CYP82D Panax ginseng: CYP82D from Panax ginseng (protein, Panax ginseng) METFLAQLYSTTTIAALFVLLVLYYFSPWTRINKKNVAPEAGGGWPIIGHLHLLGGSKLPHLVFGSMADKYGPIFTVRLGVQRSLVVSSWEMVKDIFTTNDVIVSGRPKFLAAKHLSYNYAMFGFSPYGSFWLELRKITSLQLLSNRRLELLKHVRVSEMEISMRQLYKLWSEKKNGSGRVLMDMKKWFGELNLNVTFRMVAGKRYFGGGAASNDEEARRCRRVVREFFRLLGVVVVADSLPFLRWLDLGGYERAMKETAREMDSIVSVWLEEHRIKSDSSGDDANMEQDFMDVMLSAVKNVDLCGFDAHTVIKATCMVIISSGTDTTTVELTWALCLLLNNRHVLKKAQEELDNVVGKQRRVKESDLNNLIYLQAIVKETLRLYPAGQLGGQREFSDDCTVGGYHVPKRTRLVVNLWKLHRDPRIWSDPTEFRPERFLERHKEIDVKGQHFELIPFGAGRRVCPGITFGLQMFHLVLASLLHGFDISTPSDAPVDMAEGAGLTNAKITPLEILIAPRLSPSLYE	around 93%
PAL Ganoderma sinense: Phenylalanine ammonia-lyase (PAL) from Ganoderma sinense (protein, Ganoderma sinense) MPGYTLTKTQSTSTFEPSPVTLKKAAVSSPLHAEPELPKQSSAPTLLHKFVEAHRALNNYKQGQPIVVDGQTLSIPAVAAVARYNADVVLDDSSDIQTRVLKSRQVIVDKVSSQKSVYGVSTGFGGSADTRTSDPLTLGLALFQHQHCGVLPSDTDSVPVALPLLDPLTSTSMPESWVRGAILIRMNSLIRGHSGVRWELIERMSALLRENIVPLVPLRGSISASGDLSPLSYIAGLLIGNPSIRVFDGPSTFRGRRIVSSREALSAHHIEPISLGSKEHLGILNGTAFSASVGALAVHEAVHLSLLGQVCTAMCTEAMLGAKGSFAPFIHSVARPHPGQVEVAETVTDLLEGSHFAVTAEEEKHISADIGELRQDRYPLRTSAQFLGPQVEDVLSAFAAITIECNSTTDNPLIDGETGEVHHGGNFQAMSVTNAMEKTRLAMHHIGKLLFAQCTELLNPSMNRGLPPNLAATDPSHNYFAKGVDIHAAAYVGELGYLANPVSTHVQSAEMHNQAVNSLALISARATLNSLEVLSILTSSFLYVLCQALDLRAMQHEFELEVDGILRQQLALSFGRHLSAADLDALFSVLSRHVRRSLETTSTMDAALRMRTVAAATTTPFVDFCAKRNTSLDLDEIVAFRAGLSEGMVGSLVRLREEYLRGSKGPAPAAKYLGRSRAVYEFVRVTLGIRMHGSENLHDFKEGPGVEDPTIGQDIALIHEAIRDGKMQDVVVGIFA	98%
HCTC3H Coffea canephora: hydroxycinnamoyl-CoA:quinate hydroxycinnamoyltransferase p-coumaroyl quinate 3′-hydroxylase fusion (HCTC3H), Coffea canephora (protein, listed as Coffea canephora) MKIEVKESTMVRPAQETPGRNLWNSNVDLVVPNFHTPSVYFYRPTGSSNFFDAKVLKDALSRALVPFYPMAGRLKRDEDGRIEIECNGEGVLFVEAESDGVVDDFGDFAPTLELRRLIPAVDYSQGISSYALLVLQVTYFKCGGVSLGVGMRHHAADGFSGLHFINSWSDMARGLDVTLPPFIDRTLLRARDPPQPQFQHIEYQPPPALKVSPQTAKSDSVPETAVSIFKLTREQISALKAKSKEDGNTISYSSYEMLAGHVWRCACKARGLEVDQGTKLYIATDGRARLRPSLPPGYFGNVIFTATPIAIAGDLEFKPVWYAASKIHDALARMDNDYLRSALDYLELQPDLKALVRGAHTFKCPNLGITSWVRLPIHDADFGWGRPIFMGPGGIAYEGLSFILPSPTNDGSMSVAISLQGEHMKLFQSFLYDIGGGGSGGGGSGGGGSMALLLILLPVAFIFLAYSLYERLRFKLPPGPRPKPVVGNIYDIKPVRFKCYAEWSKLYGPIFSVYFGSQLNTVVNTAELAKEVLKDNDQQLADRYRSRPSARMSRNGQDLIWADYGPHYVKVRKLCNLELFTPKRLEGLRPLREDEVTAMVDSIFKDCTKPENKGKSLLMRNYLGSVAFNNITRLTFGKRFMNSEGVVDEQGQEFKGIVSNGIRIGAKLSVADHIPWLRWMFVGENEDLDKHNARRDKLTRMIMEEHTLARQKSGNTKQHFVDALLTLQKQYELSDDTVIGLLWDMITAGMDTTTISVEWAMAELVKNPRVQQKAQEELDRVIGSDRIMTEADFAKLPYLQCVAKEALRLHPPTPLMLPHRANANVKIGGYDIPKGSIVHVNVWAIARDPAAWKNPLEFRPERFLEEDVDIKGHDYRLLPFGAGRRICPGAQLALNLVTSMLGHLLHHFTWSPPPGVRPEEIDLEESPGTVTYMRTPLQAVATPRLPAHLYNRVPVE	89%
C4H4CL Azospirillum sp.: Cinnamate 4 hydroxylase 4 coumarate coenzyme ligase fusion (C4H4CL), Azospirillum sp. (protein, Depicts the nucleic acid sequence of Cinnamte 4 hydroxylase 4 coumarate coenzyme ligase fusion (C4H4CL) of Azospirillum sp.) MDLLLLEKTLLALFIAATIAITISKLRGKRFKLPPGPIPVPVFGNWLQVGDDLNHRNLTDLAKRFGDIFLLRMGQRNLVVVSSPELAKEVLHTQGVEFGSRTRNVVFDIFTGKGQDMVFTVYGTLAEMRRIMTVPFFTNKVVQQYRFGWEFEAQSVVDDVKKNPEACSSGIVLRRRLQLMMYNIMYRIMFDRRFESEEDPLFVKLKALNGERSRLAQSFEYNYGDFIPILRPFLKGYLKLCKEVKDRRLQLFKDYFVDERKKLGSTKSTTNEGLKCAIDHILDAQQKGEINDDNVLYIVENINVAAIETTLWSIEWGIAELVNHQKIQNKVREEIDRVLGPGHQVTEPDLQKLPYLQAVIKETLRLRMAIPLLVPHMNLHDAKLSGFDIPAESKILVNAWWLANNPAQWKKPEEFRPERFLEEESHVEANGNDFRYLPFGVGRRSCPGIILALPILGITLGRLVQNFELLPPPGQSKIDTAEKGGQFSLHILKHSTIVCKPRSFNGGGGSGGGGSGGGGSMTIQRWWRNRESLNRVLCDLLAGEFARLRPGGSPPAHPHRWPETLPLGPDGVGADSLDLLQLAAALNEALHLHRSGIEDYLLMHRTVGDWLDVCEAALGRFDGALSFRTSGSTGEGKRCEHPLAALEEEADALAALLSGGAEAPRRVVSVVPAHHIYGFLFTVLLPDRLAVPVVDGRGTSPGGLAARLGPGDLVVAHPDWWGALLRSGAALPDGVTGTSSTAPCPPDTARGVRGVGLARLVEVFGSSETAGLGWRESPDAPFRPFPWWRFGDDGRVTRRLADGTVLSATLQDRLSHDEEGFRPSGRLDTVVQVGGVNVSLAGVQAHLAGHPDVEAAAVRLMRPEEGTRLKAFIVPARTAPPREELYRRLTDWIEATLPAPHRPRALAFGPALPVNGMGKPCDWPLATCR	97%
2-ODD Nitrospira japonica: 2-oxoglutarate/Fe(II)-dependent dioxygenase (2-ODD) from Nitrospira japonica (protein, Depicts the nucleic acid sequence of 2-oxoglutarate/Fe(II)-dependent dioxygenase (2-ODD) of Nitrospira japonica, 2-oxoglutarate/Fe(II)-dependent dioxygenase (2-ODD) from Nitrospira japonica) MMGGAMTTQTLDTIAEAVDQAVARLDFDRLHREYWEQNEFLVIPQFLDRAMVEEWLVPQAQGVKGDLNRNYIPGHKKGGSVSYYTVMEKAPRFLDLYRSQVFIEFLSRLSHAKLRLCPDNDPHSCALYYYTEPGDHIGFHYDTSYYKGSRYTILMGLVDQSTHCKLVCELFKDDPVRPSKRLELITQPGDMVIFNGDKLWHAVTPLGPNEERIALTMEYVTNPDMGTFKRLYSNLKDSFAYFGLRAVFKRALSLPRR	88%
